Laboratory results: patent publication US20110250613A1, “Arrayed Multiple Ubiquitin Binding Domains as Linkage-specific Polyubiquitin Affinity Reagents” (THE JOHNS HOPKINS UNIVERSITY, priority 2009, published 2011)
Each block holds one substance with its values, some of them ahead of it.

Experiments:
K48-linked diubiquitin [1] = molecular target: K48-linked diubiquitin (UniProt P0CG48); assay: fluorescence anisotropy
K63-linked diubiquitin [2] = molecular target: K63-linked diubiquitin (UniProt P0CG48); assay: ITC, single-site model
K63-linked diubiquitin [3] = molecular target: K63-linked diubiquitin (UniProt P0CG48); assay: ITC, single-site model; unit mM, evidently µM
[4] = molecular target: K63-linked tetraubiquitin (UniProt P0CG48); assay: SPR, captured on anti-GST antibody
[5] = molecular target: K48-linked tetraubiquitin (UniProt P0CG48); assay: fluorescence anisotropy
[6] = molecular target: K63-linked tetraubiquitin (UniProt P0CG48); assay: fluorescence anisotropy
[7] = molecular target: K48-linked tetraubiquitin (UniProt P0CG48); assay: fluorescence anisotropy; remark: listed apart in the source
K63-linked diubiquitin [8] = molecular target: K63-linked diubiquitin (UniProt P0CG48); assay: fluorescence anisotropy
[9] = molecular target: K63-linked tetraubiquitin (UniProt P0CG48); assay: fluorescence anisotropy; remark: listed apart in the source
K63-linked diubiquitin [10] = molecular target: K63-linked diubiquitin (UniProt P0CG48); assay: fluorescence anisotropy, divalent-divalent complex fit, non-avid mode
K63-linked diubiquitin [11] = molecular target: K63-linked diubiquitin (UniProt P0CG48); assay: fluorescence anisotropy to high K63-Ub2 concentrations, divalent-divalent complex fit, avid mode
K48-linked diubiquitin [12] = molecular target: K48-linked diubiquitin (UniProt P0CG48); assay: fluorescence anisotropy; remark: listed apart in the source
[13] = molecular target: K48-linked tetraubiquitin (UniProt P0CG48); assay: fluorescence anisotropy competition with fluorescent Vps27 7aa linker peptide
[14] = molecular target: K63-linked tetraubiquitin (UniProt P0CG48); assay: as above
K63-linked diubiquitin [15] = molecular target: K63-linked diubiquitin (UniProt P0CG48); assay: SPR, GST-UBA captured on anti-GST antibody
K48-linked diubiquitin [16] = molecular target: K48-linked diubiquitin (UniProt P0CG48); assay: SPR, GST-UBA captured on anti-GST antibody
[17] = molecular target: K48-linked tetraubiquitin (UniProt P0CG48); assay: fluorescence anisotropy, ratio of Kd
K63-linked diubiquitin [18] = molecular target: K63-linked diubiquitin (UniProt P0CG48); assay: fluorescence anisotropy competition against the fluorescent Rap80 tUIM peptide at saturating K63-Ub2
[19] = molecular target: K63-linked tetraubiquitin (UniProt P0CG48); assay: SPR Kd of GST-UBA1 against fluorescence anisotropy Kd of the free domain
[20] = molecular target: K48-linked tetraubiquitin (UniProt P0CG48); assay: SPR, GST-UBA captured on anti-GST antibody
[21] = molecular target: K63-linked tetraubiquitin (UniProt P0CG48); assay: SPR, GST-UBA captured on anti-GST antibody
[22] = molecular target: K63-linked tetraubiquitin (UniProt P0CG48); assay: fluorescence anisotropy, solution state
[23] = molecular target: K48-linked tetraubiquitin (UniProt P0CG48); assay: fluorescence anisotropy, ratio of Kd for Ub4 chains
K63-linked diubiquitin [24] = molecular target: K63-linked diubiquitin (UniProt P0CG48); assay: fluorescence anisotropy, alanine linker series
K63-linked diubiquitin [25] = molecular target: K63-linked diubiquitin (UniProt P0CG48); assay: fluorescence anisotropy; Rap80 tUIM with 9-alanine linker
[26] = molecular target: K48-linked tetraubiquitin (UniProt P0CG48); assay: fluorescence anisotropy, against K63-Ub4
K48-linked diubiquitin [27] = molecular target: K48-linked diubiquitin (UniProt P0CG48); assay: fluorescence anisotropy, against K63-Ub2
K63-linked diubiquitin [28] = molecular target: K63-linked diubiquitin (UniProt P0CG48); assay: fluorescence anisotropy; remark: listed apart in the source

Substance: Rap80 tUIM peptide with a C-terminal 3-amino acid extension (DWS)
n (sites) (K63-linked diubiquitin [2]): 0.97 sites
Kd (K63-linked diubiquitin [3]): 17600 µM

Substance: fluorescein-labeled hHR23A-UBA1 domain (from UniProt P54725 159-201)
Kd [5]: 9 µM
Kd [6]: 30 µM

Substance: ataxin-3 Rap80 linker (peptide)
Kd [7]: 7.8 µM
Kd (K63-linked diubiquitin [8]): 60 µM
Kd [9]: 11 µM
Kd (K48-linked diubiquitin [12]): 160 µM

Substance: GST-DRM2 UBA1 (from UniProt Q9M548 106-154)
Kd (K63-linked diubiquitin [15]): 89 µM
Kd (K48-linked diubiquitin [16]): 140 µM

Substance: Dsk2 UBA, fluorescein-labelled (from UniProt P48510 327-371)
Kd [5]: 1.4 µM
Kd [6]: 2.2 µM
fold difference in Kd for K63- and K48-Ub4 [17]: < 2 fold

Substance: Rap80_S101A (peptide)
Kd (K63-linked diubiquitin [8]): 11 µM
Kd (K48-linked diubiquitin [12]): 152 µM

Substance: unlabeled Rap80 tUIM peptide
Ki (K63-linked diubiquitin [18]): 24 µM

Substance: GST-hHR23A UBA1
fold tighter than the free domain [19]: > 6 fold
Kd [20]: 13 µM
Kd (K63-linked diubiquitin [15]): 26 µM
Kd [21]: 4.7 µM
Kd (K48-linked diubiquitin [16]): 36 µM

Substance: Rap80 (1-233), fluorescein-labelled (from UniProt Q96RL1 1-233)
fold preference over K48-Ub4 [22]: 7 fold
Kd [5]: 23 µM
Kd [6]: 3.4 µM

Substance: Rap80_DLKAAIQ (peptide)
Kd (K63-linked diubiquitin [8]): 10 µM
Kd (K48-linked diubiquitin [12]): 129 µM

Substance: Ataxin3 (wt) tandem UIM peptide
Kd [7]: 3.3 µM
Kd (K63-linked diubiquitin [8]): 91 µM
Kd [9]: 15 µM
Kd (K48-linked diubiquitin [12]): 100 µM
fold preference over K63-Ub4 [17]: 5 fold

Substance: Rap80 ataxin linker (peptide)
fold K48 preference [23]: 6 fold
Kd [7]: 3.4 µM
Kd (K63-linked diubiquitin [8]): 115 µM
Kd [9]: 20 µM
Kd (K48-linked diubiquitin [12]): 143 µM

Substance: Ddi1 UBA, fluorescein-labelled
Kd [5]: 50 µM
Kd [6]: 92 µM
fold difference in Kd for K63- and K48-Ub4 [17]: < 2 fold

Substance: GST-Ubc1 UBA (from UniProt P21734 167-215)
Kd (K48-linked diubiquitin [16]): 460 µM

Substance: Rap80 UIM1 peptide, fluorescein-labelled
Kd (K48-linked diubiquitin [1]): 280 µM

Substance: GST-Ede1 UBA (from UniProt P34216 1336-1381)
Kd [20]: 25 µM
Kd (K63-linked diubiquitin [15]): 48 µM
Kd [21]: 6 µM
Kd (K48-linked diubiquitin [16]): 110 µM

Substance: Rap80_S101E (peptide)
Kd (K63-linked diubiquitin [8]): 16 µM
Kd (K48-linked diubiquitin [12]): 170 µM

Substance: Ede1_rhodamine (from UniProt P34216 1338-1381)
fold preference for K48-polyUb [26]: < 2 fold
fold preference for K48-polyUb (K48-linked diubiquitin [27]): < 2 fold
Kd [5]: 31 µM
Kd (K63-linked diubiquitin [28]): 120 µM
Kd [6]: 54 µM
Kd (K48-linked diubiquitin [1]): 86 µM

Substance: Rap80 tUIM peptide with no 6xHis-tag and fluorescein on a C-terminal lysine side chain (expressed protein ligation)
Kd (K63-linked diubiquitin [28]): 19 µM

Further lines, results first:

Kd (K48-linked diubiquitin [1]): 200 µM
Substance: Rap80 UIM2 peptide, fluorescein-labelled

Kd [4]: 23 µM
Substance: GST-fmm (functionally monomeric mixture; GST-His/GST-Ede1 heterodimer) (from UniProt P34216 1336-1381)

Kd [5]: 15 µM
Kd [6]: 3.8 µM
Kd [7]: 14 µM
Kd (K63-linked diubiquitin [8]): 21.6 µM
Kd [9]: 3.6 µM
Kd (K63-linked diubiquitin [10]): 1000 µM
Kd (K63-linked diubiquitin [11]): 22 µM
Substance: Rap80 tandem UIMs (wt) peptide, His6-tagged, fluorescein-labelled

Kd [13]: 31 µM
Kd [14]: 29 µM
Kd (K63-linked diubiquitin [8]): 67 µM
Kd (K48-linked diubiquitin [12]): 211 µM
Substance: Vps27 (wt) tandem UIM peptide

Kd (K63-linked diubiquitin [8]): 17 µM
Kd (K48-linked diubiquitin [12]): 230 µM
Substance: Rap80_ARLEEKV (peptide)

fold weaker than 7 A (K63-linked diubiquitin [24]): > 25 fold
Substance: Rap80 tUIM with 9-alanine linker (peptide)

Kd (K63-linked diubiquitin [25]): 92 µM
Substance: Rap80 tUIM with 9-alanine linker

Kd [5]: 37 µM
Kd [6]: 170 µM
Substance: Ubc1 UBA, His-tagged, Alexa-fluor 546 labelled

Kd (K63-linked diubiquitin [8]): 47 µM
Substance: Rap80_nolinker (peptide)
